# Reference: paper PMC4021431, “Identification of glutathione (GSH)-independent glyoxalase III from Schizosaccharomyces pombe” (BMC Evolutionary Biology, 2014)
# B1: SpDJ-1 (Schizosaccharomyces pombe 972h-) (protein)
# chain: MVKVCLFVADGTDEIEFSAPWGIFKRAEIPIDSVYVGENKDRLVKMSRDVEMYANRSYKEIPSADDFAKQYDIAIIPGGGLGAKTLSTTPFVQQVVKEFYKKPNKWIGMICAGTLTAKTSGLPNKQITGHPSVRGQLEEGGYKYLDQPVVLEENLITSQGPGTAMLFGLKLLEQVASKDKYNAVYKSLSMP
# notes: full length (191 aa), C-terminal His6 (pET28a, NcoI/XhoI), E. coli BL21(DE3), Ni-NTA
# B2: SpDJ-1 (Schizosaccharomyces pombe 972h-; H130A) (protein)
# chain: MVKVCLFVADGTDEIEFSAPWGIFKRAEIPIDSVYVGENKDRLVKMSRDVEMYANRSYKEIPSADDFAKQYDIAIIPGGGLGAKTLSTTPFVQQVVKEFYKKPNKWIGMICAGTLTAKTSGLPNKQITGAPSVRGQLEEGGYKYLDQPVVLEENLITSQGPGTAMLFGLKLLEQVASKDKYNAVYKSLSMP
# notes: as for B1
# B3: ScHsp31 (Saccharomyces cerevisiae S288C) (protein)
# chain: MAPKKVLLALTSYNDVFYSDGAKTGVFVVEALHPFNTFRKEGFEVDFVSETGKFGWDEHSLAKDFLNGQDETDFKNKDSDFNKTLAKIKTPKEVNADDYQIFFASAGHGTLFDYPKAKDLQDIASEIYANGGVVAAVCHGPAIFDGLTDKKTGRPLIEGKSITGFTDVGETILGVDSILKAKNLATVEDVAKKYGAKYLAPVGPWDDYSITDGRLVTGVNPASAHSTAVRSIDALKN
# notes: full length (237 aa), C-terminal His6 (pET28a), E. coli BL21(DE3), Ni-NTA
# B4: Hsp3102 (Schizosaccharomyces pombe 972h-) (protein)
# chain: MSIAKGKNALLVASSYYGPFYPDGKNTGVHFSELLIPYNVFKKAGFNVQFVSENGSYKFDDHSIEESKLGDFERKVFNDKNDDFWTNLNNMKKASDIVGKDYQLLFVAGGHAAMFDLPKATNLQAVAREVFTNGGVLSAVCHGPVLLANVKNPQSVEGKTVVYHKHVTAFNKAGEEKMGVMDELKKRGMKSLNEIFAEAGATFIDPPNPNVNFTQIDGKIVTGVNPQSAKSTAEAAVSAL
# notes: full length (240 aa), C-terminal His tag (pESP3), expressed in S. pombe yAS56, Ni-NTA
# B5: Hsp3101 (Schizosaccharomyces pombe 972h-) (protein)
# chain: MASEGKVLLVASSYYGPFYPDGMNTGVHFAELLIPYQVFREAGYEVQLTSETGKCKFDDHSIKKSALGEVERDAFDNKDNEFWYALKDIKPADKINYKEFCIMFIAGGHAAMFDLPHATNLQTLAQQIYASNGVLAAVCHGPVMLPFVDDTKSPEGRSVVYGKKVTAFNSTGELVMGVSSALRERNMQDLNSLFREAGAEFVDPPTPMSDFTQVDGRIVTGVNPMSAKSTAEAAIKVSQSLRKT
# notes: full length (244 aa), C-terminal His6 (pET28a), E. coli BL21(DE3), Ni-NTA
# What was measured:
# Assay in all cases: DNPH colorimetric glyoxalase III assay, A540
# [1] = substrate: CC(=O)C=O; type: biochemical, Schizosaccharomyces pombe; settings: GSH-independent, 100 mM Na3PO4 pH 6.8, 45 °C, MG 0.5-3 mM (below Km)
# Excerpt: DNPH colorimetric glyoxalase III assay, A540 on SpDJ-1
# [2] = substrate: CC(=O)C=O; type: biochemical, Saccharomyces cerevisiae; settings: GSH-independent, 100 mM Na3PO4 pH 6.8, 45 °C
# Excerpt: DNPH colorimetric glyoxalase III assay, A540 on ScHsp31
# [3] = substrate: CC(=O)C=O; type: biochemical, Schizosaccharomyces pombe; settings: GSH-independent, 100 mM Na3PO4 pH 6.8, 45 °C
# Excerpt: DNPH colorimetric glyoxalase III assay, A540 on Hsp3102
# [4] = substrate: CC(=O)C=O; type: biochemical, Schizosaccharomyces pombe; settings: GSH-independent, 100 mM Na3PO4 pH 6.8, 45 °C; remark: listed apart in the source
# Excerpt: DNPH colorimetric glyoxalase III assay, A540 on Hsp3101
protein,measurement,setting,value
B1,Km,[1],10800 µM
same,kcat,[1],1.43 s⁻¹
same,kcat/Km,[1],132 M⁻¹ s⁻¹
B2,Km,[1],37300 µM
same,kcat,[1],1.09 s⁻¹
same,kcat/Km,[1],30 M⁻¹ s⁻¹
B3,Km,[2],1500 µM
same,kcat,[2],1.25 s⁻¹
same,kcat/Km,[2],850 M⁻¹ s⁻¹
B4,Km,[3],2700 µM
same,kcat,[3],0.967 s⁻¹
same,kcat/Km,[3],350 M⁻¹ s⁻¹
B5,Km,[4],1400 µM
same,kcat,[4],0.518 s⁻¹
same,kcat/Km,[4],383 M⁻¹ s⁻¹
